Data taken from article PMC11263360, “The structural basis of the activation and inhibition of DSR2 NADase by phage proteins” (Nature Communications, 2024).

B3: DSR2 from Bacillus subtilis 29 R, wild type (enzyme, UniProt P0DXN8 1-1005, looked up)
chain: MVKVDLESKRYGEKLKEVFLMLDNNVVECIKEITESSRNGKLVFFVGAGVSTLSDYPQWWRLVDKYHEELYGSPKKGNYSSDEYLRIPQIFYNVKGEMAFDGILKDFFQVDKPTNPIHDKILAMNPAHVITTNYDNLIDTACWKRGKYFSVISAEEDVANATSSRYLLKVHGDFRKGFKGENVVLKEDDYLNYDQNYPLISNLMKTIIATHTIVFIGYGLGDYNINMLLNWVRKLQKDSFHKPFFIRTDPSPIENETLIYYENKGLRIIDAASLIDSNEYDYLERYSAVMDLLIESQENKFITKDDEVIDYIYGKISPLFALQYIRKIDLKHVFEYDYHFEVNGTVVRHKNKGFGYMERFFELKESCDERSKLSKKQYERFNALFNFFEKNGVICMAKDAGTLNTSIEINSLAYHGKYDVMKKFIEEQSVSIEDDYKKAFFLACLGRWEESYDLYSNIILNSIDESNGCVYYLSQINRYRIYQSITQAVTQFNGLGLLTFGRHYKPFTDEFLARIEREMTNFNIDDLFNGMPFEFQKKYKILEFLSDNQFLYDDTVKLFELTNKVRSEMSEGSYSFGMSSDIVVLLRLYDNLRFLYENCLWSVSFHEFHQYIRNSMSLLIEKAEYERTRDIDELGFSFFGKKSGFFMEYYDFVNISRHFKIDDIKNLERSCSIDKIRFGEQEKIEEYLVGIAEEITKQFSANGMNVVFYTQFISEAKAALYFAKYVKLSEEGLGKIVKALLFYFPERDLDIGKRYVWLERLTKCNELPKSIISIIDDFLVLQAEKHIDQNYSEVSSNGLYSRDYGALIKHFEKNFISKRLSEITLCLTQDKQKQIDFLFKLLPLLSTNAKSHLLSFKSVENINDLMNGIRIGLIDEFTPEHEELIIEYLETRKVNYIVEKEKGIQTFSSNDYMSTFGIWYFLEEINNSKMEEFIGMDDQYDFFVDPENFDYKKFIPSWLKNYNDKLLGKIAGNKHMKHHVIEVLKERVKNSNDKRYLEILMNYFI
notes: DSR2, Sir2 domain-containing NADase, Bacillus subtilis 29 R, WP_029317421, full length (domains described over residues 1-1005); Cloned into pRSF-32M or pET-32M.3C (both add N-terminal thioredoxin and 6xHis); Crosslinked with BS3 for part of the cryo-EM data; also called WT DSR2; wild-type (WT) DSR2; source: E. coli BL21 (DE3), purified (Ni-NTA, size exclusion); for the DSR2-DSAD1 complex …
B5: DSR2 (H171A) catalytically inactive mutant (enzyme, Bacillus subtilis 29 R, UniProt P0DXN8 1-1005, looked up)
chain: MVKVDLESKRYGEKLKEVFLMLDNNVVECIKEITESSRNGKLVFFVGAGVSTLSDYPQWWRLVDKYHEELYGSPKKGNYSSDEYLRIPQIFYNVKGEMAFDGILKDFFQVDKPTNPIHDKILAMNPAHVITTNYDNLIDTACWKRGKYFSVISAEEDVANATSSRYLLKVAGDFRKGFKGENVVLKEDDYLNYDQNYPLISNLMKTIIATHTIVFIGYGLGDYNINMLLNWVRKLQKDSFHKPFFIRTDPSPIENETLIYYENKGLRIIDAASLIDSNEYDYLERYSAVMDLLIESQENKFITKDDEVIDYIYGKISPLFALQYIRKIDLKHVFEYDYHFEVNGTVVRHKNKGFGYMERFFELKESCDERSKLSKKQYERFNALFNFFEKNGVICMAKDAGTLNTSIEINSLAYHGKYDVMKKFIEEQSVSIEDDYKKAFFLACLGRWEESYDLYSNIILNSIDESNGCVYYLSQINRYRIYQSITQAVTQFNGLGLLTFGRHYKPFTDEFLARIEREMTNFNIDDLFNGMPFEFQKKYKILEFLSDNQFLYDDTVKLFELTNKVRSEMSEGSYSFGMSSDIVVLLRLYDNLRFLYENCLWSVSFHEFHQYIRNSMSLLIEKAEYERTRDIDELGFSFFGKKSGFFMEYYDFVNISRHFKIDDIKNLERSCSIDKIRFGEQEKIEEYLVGIAEEITKQFSANGMNVVFYTQFISEAKAALYFAKYVKLSEEGLGKIVKALLFYFPERDLDIGKRYVWLERLTKCNELPKSIISIIDDFLVLQAEKHIDQNYSEVSSNGLYSRDYGALIKHFEKNFISKRLSEITLCLTQDKQKQIDFLFKLLPLLSTNAKSHLLSFKSVENINDLMNGIRIGLIDEFTPEHEELIIEYLETRKVNYIVEKEKGIQTFSSNDYMSTFGIWYFLEEINNSKMEEFIGMDDQYDFFVDPENFDYKKFIPSWLKNYNDKLLGKIAGNKHMKHHVIEVLKERVKNSNDKRYLEILMNYFI
notes: DSR2, Bacillus subtilis 29 R, WP_029317421, full length, with H171A; Crosslinked with 1 mM BS3 before cryo-EM; source: E. coli BL21 (DE3), purified (Ni-NTA, size exclusion)

How the values were obtained:
[1] = target: B5; test: cryo-EM structure; purified DSR2 (H171A)-TTP complex, crosslinked with 1 mM BS3, with 1 mM NAD+; 20 mM HEPES pH 7.5, 100 mM NaCl, 0.5 mM TCEP; details: both partners purified
[2] = target: B3; test: cryo-EM structure; DSR2-DSAD1 complex co-expressed in E. coli and co-purified; uncrosslinked and BS3-crosslinked samples; details: both partners purified
[3] = target: the molecule itself; test: as above
[4] = target: the molecule itself; test: AUC; sedimentation velocity, 12 °C, 0.8 mg/ml, 20 mM Tris-HCl pH 7.5, 100 mM NaCl, 1 mM DTT; SEDFIT
[5] = target: the molecule itself; test: cryo-EM structure; DSR2 (H171A) alone, crosslinked with 1 mM BS3 in the presence of NAD+; 20 mM HEPES pH 7.5, 100 mM NaCl, 0.5 mM TCEP

B1: tail tube protein (TTP) from SPR phage (natural protein, UniProt A0AAE9G628 1-264, looked up)
chain: MKTVIQDTADVYFKRKSDGKLVFTAEAQTASFSQAISEEKLRGGIGNKPLYILKSEKEINLTVKNAFFDLEWLAMTQGETIQEETKVKVFDREHGLIVDDTNKVTLKGKPVSDVTFYNKKGLTYKIAVSTDGTYTIPTAFAAAKDKLTAVYQIEKVGRRLAIKASKFSERYEVEYRTIAYNPDTEEVYSDIYIQFPNVSPSGEFEMSLENGNALAPEIKFEALADTDTDEMAVVIEASRDENTAAPVEDTTGSTQSSDLGGTTE
notes: tail tube protein (TTP), SPR phage, WP_010328117, full length; Residues 80-167 have no density in the cryo-EM map; source: E. coli BL21 (DE3), purified (Ni-NTA, size exclusion)
With B1 the “stoichiometry N” value [1] was 0.5 TTP per DSR2 (2:4).

B2: DSAD1 from SPbeta phage (co-expressed with DSR2) (natural protein, UniProt Q796A8 1-120, looked up)
chain: MIEIFKDTGATHDLVYHSKINTFVWDVEFDIVLSDSKELNKCYFVKCFNPYRINGKCDFAVSSIDIFSEGKRLLIENEFNFKITKAVHVATSKDVTEIVLHLSERISSPFPIVKEVVYLD
notes: DSAD1, SPbeta phage, WP_004399562, full length; source: E. coli BL21 (DE3), co-expressed with DSR2, complex co-purified (as apo DSR2: Ni-NTA, size exclusion)
B2 was tested, and the “stoichiometry N” value [2] was 0.5 DSAD1 per DSR2 (2:4).

For B3, the “stoichiometry N” value [3] was 4.

B4: DSR2 Y260E mutant (enzyme, Bacillus subtilis 29 R, UniProt P0DXN8 1-1005, looked up)
chain: MVKVDLESKRYGEKLKEVFLMLDNNVVECIKEITESSRNGKLVFFVGAGVSTLSDYPQWWRLVDKYHEELYGSPKKGNYSSDEYLRIPQIFYNVKGEMAFDGILKDFFQVDKPTNPIHDKILAMNPAHVITTNYDNLIDTACWKRGKYFSVISAEEDVANATSSRYLLKVHGDFRKGFKGENVVLKEDDYLNYDQNYPLISNLMKTIIATHTIVFIGYGLGDYNINMLLNWVRKLQKDSFHKPFFIRTDPSPIENETLIEYENKGLRIIDAASLIDSNEYDYLERYSAVMDLLIESQENKFITKDDEVIDYIYGKISPLFALQYIRKIDLKHVFEYDYHFEVNGTVVRHKNKGFGYMERFFELKESCDERSKLSKKQYERFNALFNFFEKNGVICMAKDAGTLNTSIEINSLAYHGKYDVMKKFIEEQSVSIEDDYKKAFFLACLGRWEESYDLYSNIILNSIDESNGCVYYLSQINRYRIYQSITQAVTQFNGLGLLTFGRHYKPFTDEFLARIEREMTNFNIDDLFNGMPFEFQKKYKILEFLSDNQFLYDDTVKLFELTNKVRSEMSEGSYSFGMSSDIVVLLRLYDNLRFLYENCLWSVSFHEFHQYIRNSMSLLIEKAEYERTRDIDELGFSFFGKKSGFFMEYYDFVNISRHFKIDDIKNLERSCSIDKIRFGEQEKIEEYLVGIAEEITKQFSANGMNVVFYTQFISEAKAALYFAKYVKLSEEGLGKIVKALLFYFPERDLDIGKRYVWLERLTKCNELPKSIISIIDDFLVLQAEKHIDQNYSEVSSNGLYSRDYGALIKHFEKNFISKRLSEITLCLTQDKQKQIDFLFKLLPLLSTNAKSHLLSFKSVENINDLMNGIRIGLIDEFTPEHEELIIEYLETRKVNYIVEKEKGIQTFSSNDYMSTFGIWYFLEEINNSKMEEFIGMDDQYDFFVDPENFDYKKFIPSWLKNYNDKLLGKIAGNKHMKHHVIEVLKERVKNSNDKRYLEILMNYFI
notes: DSR2, Bacillus subtilis 29 R, WP_029317421, full length, with Y260E; AUC mass 215 kDa against 425 kDa for the wild type; source: E. coli BL21 (DE3), purified
B4: binds [4].

In the case of B5, the “stoichiometry N” value [5] is reported as 4.
